Assay results published in the supplement of paper PMC10567573.

B1: TRIM43 (parent)
chain: YQEIFQQLQRSWVKMDQKSKHLKE
B2: SERPINB5 (parent)
chain: FPESETKECPFRVNKVCGAACSSK

Variants of: B1
Assay: protein stability index of a GFP-peptide fusion (GPS, HEK-293T) (PSI 1-6); higher = more stable
Details: c terminus: a fixed tail appended
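Also: lentivirally expressed fusions sorted by FACS into six bins by GFP to DsRed ratio, PSI derived from sequencing read proportions per bin multiplied by bin number.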

Variant	protein stability index
YQEIQQQLQRSWVKMDQKSKHLKE [F5Q]	3.7
YQEIWQQLQRSWVKMDQKSKHLKE [F5W]	2.19
YQEIVQQLQRSWVKMDQKSKHLKE [F5V]	2.82
YQEIAQQLQRSWVKMDQKSKHLKE [F5A]	2.94
YQEINQQLQRSWVKMDQKSKHLKE [F5N]	3.47
YQEIMQQLQRSWVKMDQKSKHLKE [F5M]	2.22
YQEIPQQLQRSWVKMDQKSKHLKE [F5P]	2.79
YQEIIQQLQRSWVKMDQKSKHLKE [F5I]	1.7
YQEIFQQLQRSWVKHDQKSKHLKE [M15H]	2.29
YQEIFQQLQRSWVKNDQKSKHLKE [M15N]	2.59
YQEIFQQLQRSWVKRDQKSKHLKE [M15R]	2.5
YQEIFQQLQRSWVKVDQKSKHLKE [M15V]	2.13
YQEIFQQLQRSWVKLDQKSKHLKE [M15L]	2
YQEIFQQLQRSWVKFDQKSKHLKE [M15F]	1.99
YIEIFQQLQRSWVKMDQKSKHLKE [Q2I]	1.52
YTEIFQQLQRSWVKMDQKSKHLKE [Q2T]	2.18
YREIFQQLQRSWVKMDQKSKHLKE [Q2R]	1.56
YDEIFQQLQRSWVKMDQKSKHLKE [Q2D]	2.64
YFEIFQQLQRSWVKMDQKSKHLKE [Q2F]	1.55
YSEIFQQLQRSWVKMDQKSKHLKE [Q2S]	1.22
YYEIFQQLQRSWVKMDQKSKHLKE [Q2Y]	1.72
YQEIFQQLQRTWVKMDQKSKHLKE [S11T]	1.81
YQEIFQQLQRHWVKMDQKSKHLKE [S11H]	2.18
YQEIFQQLQRCWVKMDQKSKHLKE [S11C]	1.97
YQEIFQQLQRPWVKMDQKSKHLKE [S11P]	2.3

Variant	protein stability index
YQEIFQQLQRIWVKMDQKSKHLKE [S11I]	2.57
YQEIFQQLQRDWVKMDQKSKHLKE [S11D]	2.68
YQEIFQQLDRSWVKMDQKSKHLKE [Q9D]	2.6
YQEIFQQLNRSWVKMDQKSKHLKE [Q9N]	2.25
YQEIFQQLPRSWVKMDQKSKHLKE [Q9P]	2.73
YQEIFQQLRRSWVKMDQKSKHLKE [Q9R]	3.11
YQEIFQQLMRSWVKMDQKSKHLKE [Q9M]	2.32
YQEIFQQLHRSWVKMDQKSKHLKE [Q9H]	1.95
YQEIFQQLQRSWVKMLQKSKHLKE [D16L]	3.47
YQEIFQQLQRSWVKMKQKSKHLKE [D16K]	2.35
YQEIFQQLQRSWVKMRQKSKHLKE [D16R]	2.2
YQEIFQQLQRSWVKMFQKSKHLKE [D16F]	3.17
YQEIFQQLQRSWVKMDQKSKHYKE [L22Y]	1.92
YQEIFQQLQRSWVKMDQKSKHHKE [L22H]	2.35
YQEIFQQLQRSWVKMDQKSKHMKE [L22M]	2.13
YQEIFQQLQRSWVKMDQKSKHDKE [L22D]	3.28
YQEIFQTLQRSWVKMDQKSKHLKE [Q7T]	1.82
YQEIFQYLQRSWVKMDQKSKHLKE [Q7Y]	2.53
YQEIFQMLQRSWVKMDQKSKHLKE [Q7M]	2.13
YQEIFQLLQRSWVKMDQKSKHLKE [Q7L]	2.11
YQEIFQALQRSWVKMDQKSKHLKE [Q7A]	1.87
YQEIFQPLQRSWVKMDQKSKHLKE [Q7P]	2.28
YQEIFQWLQRSWVKMDQKSKHLKE [Q7W]	3.41
YQEIFQGLQRSWVKMDQKSKHLKE [Q7G]	2.59
YQEIFQDLQRSWVKMDQKSKHLKE [Q7D]	2.79

Variant	protein stability index
YQEIFQQLQRSWVKMDQKKKHLKE [S19K]	1.77
YQEIFQQLQRSWVKMDQKNKHLKE [S19N]	2.35
YQEIFQQLQRSWVKMDQKCKHLKE [S19C]	1.99
YQEIFQQLQRSWVKMDQKEKHLKE [S19E]	2.29
YQEIFQQLQRSWVKMDQKRKHLKE [S19R]	1.98
YQEIFQQLQRSWVKMDQKIKHLKE [S19I]	3.05
YQEIFQQLQRSWVKMDQKQKHLKE [S19Q]	2.14
YQEIFQQLQYSWVKMDQKSKHLKE [R10Y]	1.79
YQEIFQQLQISWVKMDQKSKHLKE [R10I]	2.95
YQEIFQQLQVSWVKMDQKSKHLKE [R10V]	2.26
YQEIFQQLQPSWVKMDQKSKHLKE [R10P]	2.55
YQEIFQQLQTSWVKMDQKSKHLKE [R10T]	1.94
YQEIFQQLQSSWVKMDQKSKHLKE [R10S]	2.71
YQEIFQQLQASWVKMDQKSKHLKE [R10A]	2.74
YQEIFQQLQGSWVKMDQKSKHLKE [R10G]	3.03
YQEIFQQLQLSWVKMDQKSKHLKE [R10L]	2.4
YQEIFMQLQRSWVKMDQKSKHLKE [Q6M]	2.49
YQEIFHQLQRSWVKMDQKSKHLKE [Q6H]	2.17
YQEIFCQLQRSWVKMDQKSKHLKE [Q6C]	2.07
YQEIFKQLQRSWVKMDQKSKHLKE [Q6K]	1.85
YQEIFNQLQRSWVKMDQKSKHLKE [Q6N]	2.21
YQEHFQQLQRSWVKMDQKSKHLKE [I4H]	1.85
YQEKFQQLQRSWVKMDQKSKHLKE [I4K]	1.87
YQEFFQQLQRSWVKMDQKSKHLKE [I4F]	1.8
YQEEFQQLQRSWVKMDQKSKHLKE [I4E]	1.78

Variant	protein stability index
YQEMFQQLQRSWVKMDQKSKHLKE [I4M]	1.51
YQESFQQLQRSWVKMDQKSKHLKE [I4S]	1.94
YQEAFQQLQRSWVKMDQKSKHLKE [I4A]	1.98
YQEIFQQWQRSWVKMDQKSKHLKE [L8W]	2.85
YQEIFQQKQRSWVKMDQKSKHLKE [L8K]	3.1
YQEIFQQTQRSWVKMDQKSKHLKE [L8T]	3.24
YQEIFQQLQRSWVKMDQKSYHLKE [K20Y]	1.68
YQEIFQQLQRSWVKMDQKSVHLKE [K20V]	1.94
YQEIFQQLQRSWVKMDQKSFHLKE [K20F]	2.56
YQEIFQQLQRSWVKMDQKSAHLKE [K20A]	2.74
YQEIFQQLQRSWVKMDQKSPHLKE [K20P]	2.48
YQEIFQQLQRSWAKMDQKSKHLKE [V13A]	2.04
YQEIFQQLQRSWMKMDQKSKHLKE [V13M]	1.9
YQEIFQQLQRSWWKMDQKSKHLKE [V13W]	1.16
YQEIFQQLQRSWCKMDQKSKHLKE [V13C]	2.02
YQEIFQQLQRSWVWMDQKSKHLKE [K14W]	2.61
YQEIFQQLQRSWVEMDQKSKHLKE [K14E]	2.92
YQEIFQQLQRSWVMMDQKSKHLKE [K14M]	2.37
YQEIFQQLQRSWVQMDQKSKHLKE [K14Q]	2.36
YQEIFQQLQRSWVHMDQKSKHLKE [K14H]	2.04
YQEIFQQLQRSWVLMDQKSKHLKE [K14L]	2.44
YQEIFQQLQRSWVPMDQKSKHLKE [K14P]	2.19
YQEIFQQLQRSWVNMDQKSKHLKE [K14N]	2.99
YQEIFQQLQRSNVKMDQKSKHLKE [W12N]	2.81
YQEIFQQLQRSCVKMDQKSKHLKE [W12C]	2.34

Variant	protein stability index
YQEIFQQLQRSVVKMDQKSKHLKE [W12V]	2.69
YQEIFQQLQRSEVKMDQKSKHLKE [W12E]	3.16
YQEIFQQLQRSFVKMDQKSKHLKE [W12F]	2.57
YQEIFQQLQRSYVKMDQKSKHLKE [W12Y]	2.18
YQEIFQQLQRSRVKMDQKSKHLKE [W12R]	3.12
YQEIFQQLQRSWVKMDQKSKHLKK [E24K]	1.99
YQEIFQQLQRSWVKMDQKSKHLKH [E24H]	2.33
YQEIFQQLQRSWVKMDQKSKHLKF [E24F]	1.92
YQEIFQQLQRSWVKMDQKSKHLKW [E24W]	2.41
YQEIFQQLQRSWVKMDQKSKHLKY [E24Y]	1.95
YQEIFQQLQRSWVKMDQKSKHLKV [E24V]	1.81
YQEIFQQLQRSWVKMDQKSKHLKI [E24I]	1.78
YQEIFQQLQRSWVKMDQKSKHLKL [E24L]	2.45
YQEIFQQLQRSWVKMDQKSKHLKR [E24R]	1.8
YQEIFQQLQRSWVKMDQKSKHLHE [K23H]	1.79
YQEIFQQLQRSWVKMDQKSKHLLE [K23L]	1.66
YQEIFQQLQRSWVKMDQKSKHLQE [K23Q]	2.11
YQEIFQQLQRSWVKMDQKSKHLCE [K23C]	1.74
YQEIFQQLQRSWVKMDQKSKHLEE [K23E]	2.6
PQEIFQQLQRSWVKMDQKSKHLKE [Y1P]	3.04
CQEIFQQLQRSWVKMDQKSKHLKE [Y1C]	1.56
EQEIFQQLQRSWVKMDQKSKHLKE [Y1E]	4.08
LQEIFQQLQRSWVKMDQKSKHLKE [Y1L]	1.5
GQEIFQQLQRSWVKMDQKSKHLKE [Y1G]	3.82
IQEIFQQLQRSWVKMDQKSKHLKE [Y1I]	2.04

Variant	protein stability index
QQEIFQQLQRSWVKMDQKSKHLKE [Y1Q]	3.35
YQPIFQQLQRSWVKMDQKSKHLKE [E3P]	1.69
YQLIFQQLQRSWVKMDQKSKHLKE [E3L]	1.79
YQDIFQQLQRSWVKMDQKSKHLKE [E3D]	2.18
YQCIFQQLQRSWVKMDQKSKHLKE [E3C]	2.13
YQQIFQQLQRSWVKMDQKSKHLKE [E3Q]	1.63
YQIIFQQLQRSWVKMDQKSKHLKE [E3I]	2.29
YQEIFQQLQRSWVKMDQKSKYLKE [H21Y]	2.27
YQEIFQQLQRSWVKMDQKSKTLKE [H21T]	2.28
YQEIFQQLQRSWVKMDQKSKPLKE [H21P]	1.64
YQEIFQQLQRSWVKMDAKSKHLKE [Q17A]	2.1
YQEIFQQLQRSWVKMDPKSKHLKE [Q17P]	2.21
YQEIFQQLQRSWVKMDVKSKHLKE [Q17V]	2.17
YQEIFQQLQRSWVKMDSKSKHLKE [Q17S]	2.29
YQEIFQQLQRSWVKMDTKSKHLKE [Q17T]	2.62
YQEIFQQLQRSWVKMDQFSKHLKE [K18F]	1.44
YQEIFQQLQRSWVKMDQGSKHLKE [K18G]	2.4
YQEIFQQLQRSWVKMDQRSKHLKE [K18R]	2.57
YQEIFQQLQRSWVKMDQTSKHLKE [K18T]	2.71
YQEIFQQLQRSWVKMDQYSKHLKE [K18Y]	1.86
YQEIFQQLQRSWVKMDQSSKHLKE [K18S]	2
YQEIFQQLQRSWVKMDQISKHLKE [K18I]	1.37

Variants of: B2
Assay: as above
Details: c terminus: a fixed tail appended

Variant	protein stability index
FPESETKECPFRVNKVCGAACSAK [S23A]	2.41
FPESETKECPFRVNKVCGAACSTK [S23T]	2.19
FPESETKECPFRVNKVCGAACSHK [S23H]	3.33
FPESETKECPFRVNKVCGAACSYK [S23Y]	2.29
FPESETKECPFRVNKVCGAACSQK [S23Q]	2.35
FPESETKECPFRVNKVCGAACSRK [S23R]	2.02
FPESETKECPFRVNKVCGAACSNK [S23N]	2.96
FPESETKECPFRVNKVCGAACSKK [S23K]	2.97
FPESETKECPFRVNKVCGAACSIK [S23I]	2.26
FPESETKECPFRVNKVCGAACSGK [S23G]	2.4
FPESETKECPFRVNKVCGAACSPK [S23P]	2.39
FPESETKECPFRVNKVCGAACSLK [S23L]	2.4
FPESETKECPFRVNKVCGAACSEK [S23E]	3.16
FPESETKECPFRVNKVCGAACSMK [S23M]	2.39
FPESETKECPFRVNKVCGAACSWK [S23W]	1.93
FPESETKECPFRVNKVCGAACSVK [S23V]	2.42
FPESETKECPFRVNKVCGAACSDK [S23D]	2.78
FPESETKECPFRVNKVCGAACSFK [S23F]	2.23
FPESETKECPFRVNKVCGAACSCK [S23C]	2.66
FPESETKECPFRVNKVCGAACSSN [K24N]	1.89
FPESETKECPFRVNKVCGAACSSF [K24F]	2.02

Variant	protein stability index
FPESETKECPFRVNKVCGAACSSG [K24G]	2.57
FPESETKECPFRVNKVCGAACSSA [K24A]	2.42
FPESETKECPFRVNKVCGAACSSS [K24S]	2.25
FPESETKECPFRVNKVCGAACSSM [K24M]	2
FPESETKECPFRVNKVCGAACSSV [K24V]	2.17
FPESETKECPFRVNKVCGAACSSW [K24W]	1.46
FPESETKECPFRVNKVCGAACSSQ [K24Q]	2.45
FPESETKECPFRVNKVCGAACSSH [K24H]	2.81
FPESETKECPFRVNKVCGAACSSR [K24R]	2.05
FPESETKECPFRVNKVCGAACSSL [K24L]	2.13
FPESETKECPFRVNKVCGAACSSP [K24P]	2.21
FPESETKECPFRVNKVCGAACSST [K24T]	2.48
FPESETKECPFRVNKVCGAACSSI [K24I]	1.88
FPESETKECPFRVNKVCGAACSSE [K24E]	2.96
FPESETKECPFRVNKVCGAACSSY [K24Y]	2.25
FPESETKECPFRVNKVCGAACSSD [K24D]	2.94
FPESETKECPFRVNKVCGAACSSC [K24C]	3.31
FPESETKECPFRVNKVCGAACWSK [S22W]	2.03
FPESETKECPFRVNKVCGAACVSK [S22V]	2.1
FPESETKECPFRVNKVCGAACYSK [S22Y]	2.46
